Patent US20170283458A1, “COLLAGEN-BINDING SYNTHETIC PEPTIDOGLYCANS FOR WOUND HEALING” (Symic Biomedical, Inc., priority 2009, published 2017)
Ends that are not written are not given here.

Tested on: Long-Evans rats
Assay: Rat incisional model, H&E histological scoring for inflammation
Format: in vivo
Conditions: low and high doses, all time points
Description: Using sterile techniques, longitudinal wounds were incised on shaved dorsal skin of the rats. A 4 cm incision was cut through the panniculus down to the skeletal musculature, and a 250 μL single dose of either 10 mg/mL hyaluronic acid (HA) or HA+DS-SILY was applied to the open wound by a syringe. DS-SILY was tested at 0.5, 1, and 2.5 mg/mL mixed with HA. The incision was then sutured closed and animals were returned to individual cages and monitored for complications. Negative control rats received no treatment and were treated identically. A pilot study was performed (n=3) at time points 3, 7, 10, 14, and 21 days, followed by a higher powered study (n=9) for 21 and 28 day time points. […]
H&E stained samples were examined for inflammation by a board certified pathologies blinded to the treatments following a scale adapted from Simhon et al. Trichrome stained samples were evaluated for scar tissue formation by an observer blinded to the treatments using a method established by Beausang et al. in which collagen orientation, density, and maturation are observed and compared to collagen of healthy tissue. A total of 12 tissue samples were analyzed for each study at each time point. Statistics were analyzed by ANOVA using Design Expert software (StatEase, Minneapolis, Minn.). […]

Substance: DS-SILY: collagen-binding peptidoglycan in which a single SILY peptide was conjugated to dermatan sulfate via PDPH (RRANAALKAGELYKSILYGC; also: single peptide conjugated to dermatan sulfate via PDPH, site not given here)
- inflammatory response (histological scoring): does not cause an adverse immune response
- inflammatory response (histological scoring) (listed as peptidoglycan): did not have any adverse inflammatory effect
